In patent US20180030151A1 (MOGAM INSTITUTE FOR BIOMEDICAL RESEARCH, published 2018):
Read-outs that look alike come from different tables or passages of the source. Each block holds one binder with its values, some of them ahead of it.

Columns and labels:
[1] = target: T1, recombinant human TFPI (tissue factor pathway inhibitor) (human, UniProt P10646 29-304); assay: cell-based or functional assay
[2] = target: T1, recombinant human TFPI (tissue factor …); assay: cell-based or functional assay; remark: listed apart in the source
[3] = target: T1, recombinant human TFPI (tissue factor …); assay: cell-based or functional assay; remark: listed apart in the source
[4] = target: T1, recombinant human TFPI (tissue factor …); assay: cell-based or functional assay; remark: listed apart in the source
[5] = target: T1, recombinant human TFPI (tissue factor …); assay: cell-based or functional assay; remark: listed apart in the source
[6] = target: T1, recombinant human TFPI (tissue factor …); assay: cell-based or functional assay; remark: listed apart in the source
[7] = target: T1, recombinant human TFPI (tissue factor …); assay: cell-based or functional assay; remark: listed apart in the source
[8] = target: T1, recombinant human TFPI (tissue factor …); assay: SPR, Biacore T-200; TFPI immobilised on CM5 chip, IgG as analyte
Method: 10 mM of glycine-HCl (pH 1.5) was run at a flow rate of 30 μL/min for 30 seconds, thereby inducing the dissociation of the antibody associated with the TFPI. The affinity in terms of kinetic rate constants (Kₒₙ and Koff) and equilibrium dissociation constant

[9] = target: T1, recombinant human TFPI (tissue factor …); assay: cell-based or functional assay; remark: listed apart in the source
[10] = target: T1, recombinant human TFPI (tissue factor …); assay: cell-based or functional assay; remark: listed apart in the source
[11] = target: T1, recombinant human TFPI (tissue factor …); assay: cell-based or functional assay; remark: listed apart in the source
[12] = target: T1, recombinant human TFPI (tissue factor …); assay: cell-based or functional assay; remark: listed apart in the source
[13] = target: T1, recombinant human TFPI (tissue factor …); assay: cell-based or functional assay; remark: listed apart in the source

A405, TF/FVIIa/FX complex assay, Ab 1.56 nM [1]: 0.154
A405, TF/FVIIa/FX complex assay, Ab 3.13 nM [1]: 0.164
A405, TF/FVIIa/FX complex assay, Ab 6.25 nM [1]: 0.185
A405, TF/FVIIa/FX complex assay, Ab 12.5 nM [1]: 0.222
A405, TF/FVIIa/FX complex assay, Ab 25 nM [1]: 0.716
A405, TF/FVIIa/FX complex assay, Ab 50 nM [1]: 0.909
A405, TF/FVIIa/FX complex assay, Ab 100 nM [1]: 0.926
FXa assay % of FXa alone, 2.5 nM Ab, 10 nM TFPI [2]: 7%
FXa assay % of FXa alone, 5 nM Ab, 10 nM TFPI [2]: 20.8%
FXa assay % of FXa alone, 10 nM Ab, 10 nM TFPI [2]: 49.3%
FXa assay % of FXa alone, 20 nM Ab, 10 nM TFPI [2]: 68.4%
FXa assay OD, 2.5 nM Ab, 10 nM TFPI [2]: 0.057
FXa assay OD, 5 nM Ab, 10 nM TFPI [2]: 0.169
FXa assay OD, 10 nM Ab, 10 nM TFPI [2]: 0.401
FXa assay OD, 20 nM Ab, 10 nM TFPI [2]: 0.555
FXa assay % of FXa alone, 2.5 nM Ab, 10 nM TFPI [3]: 8.6%
FXa assay % of FXa alone, 5 nM Ab, 10 nM TFPI [3]: 30.7%
FXa assay % of FXa alone, 10 nM Ab, 10 nM TFPI [3]: 60.4%
FXa assay % of FXa alone, 20 nM Ab, 10 nM TFPI [3]: 71.6%
FXa assay OD, 2.5 nM Ab, 10 nM TFPI [3]: 0.069
FXa assay OD, 5 nM Ab, 10 nM TFPI [3]: 0.247
FXa assay OD, 10 nM Ab, 10 nM TFPI [3]: 0.487
FXa assay OD, 20 nM Ab, 10 nM TFPI [3]: 0.578
TF/FVIIa/FXa assay % of 0 nM TFPI, 12.5 nM Ab, 50 nM TFPI [4]: 20.7%
TF/FVIIa/FXa assay % of 0 nM TFPI, 50 nM Ab, 50 nM TFPI [4]: 111%
TF/FVIIa/FXa assay % of 0 nM TFPI, 100 nM Ab, 50 nM TFPI [4]: 111%
TF/FVIIa/FXa assay OD, 12.5 nM Ab, 50 nM TFPI [4]: 0.166 OD
TF/FVIIa/FXa assay OD, 25 nM Ab, 50 nM TFPI [4]: 0.548 OD
TF/FVIIa/FXa assay OD, 50 nM Ab, 50 nM TFPI [4]: 0.886 OD
TF/FVIIa/FXa assay OD, 100 nM Ab, 50 nM TFPI [4]: 0.89 OD
A405, TF/FVIIa/FX complex assay, Ab 1.56 nM [5]: 0.135
A405, TF/FVIIa/FX complex assay, Ab 3.13 nM [5]: 0.155
A405, TF/FVIIa/FX complex assay, Ab 6.25 nM [5]: 0.177
A405, TF/FVIIa/FX complex assay, Ab 12.5 nM [5]: 0.223
A405, TF/FVIIa/FX complex assay, Ab 25 nM [5]: 0.664
A405, TF/FVIIa/FX complex assay, Ab 50 nM [5]: 0.926
A405, TF/FVIIa/FX complex assay, Ab 100 nM [5]: 0.938
FXa assay % of FXa alone, 2.5 nM Ab, 10 nM TFPI [6]: 9.9%
FXa assay % of FXa alone, 5 nM Ab, 10 nM TFPI [6]: 56.8%
FXa assay % of FXa alone, 10 nM Ab, 10 nM TFPI [6]: 76.8%
FXa assay % of FXa alone, 20 nM Ab, 10 nM TFPI [6]: 77.3%
FXa assay OD, 2.5 nM Ab, 10 nM TFPI [6]: 0.0765
FXa assay OD, 5 nM Ab, 10 nM TFPI [6]: 0.438
FXa assay OD, 10 nM Ab, 10 nM TFPI [6]: 0.591
% of Normalized, TF/FVIIa/FX complex assay, Ab 1.56 nM [7]: 16.1%
% of Normalized, TF/FVIIa/FX complex assay, Ab 3.13 nM [7]: 17.2%
% of Normalized, TF/FVIIa/FX complex assay, Ab 6.25 nM [7]: 19.4%
% of Normalized, TF/FVIIa/FX complex assay, Ab 12.5 nM [7]: 23.2%
% of Normalized, TF/FVIIa/FX complex assay, Ab 25 nM [7]: 75%
% of Normalized, TF/FVIIa/FX complex assay, Ab 50 nM [7]: 95.2%
% of Normalized, TF/FVIIa/FX complex assay, Ab 100 nM [7]: 97%
Kd [8]: 0.024 nM
FXa assay % of FXa alone, 2.5 nM Ab, 10 nM TFPI [9]: 8.5%
FXa assay % of FXa alone, 5 nM Ab, 10 nM TFPI [9]: 26.5%
FXa assay % of FXa alone, 10 nM Ab, 10 nM TFPI [9]: 57.9%
FXa assay % of FXa alone, 20 nM Ab, 10 nM TFPI [9]: 67%
FXa assay OD, 2.5 nM Ab, 10 nM TFPI [9]: 0.041
FXa assay OD, 5 nM Ab, 10 nM TFPI [9]: 0.129
FXa assay OD, 10 nM Ab, 10 nM TFPI [9]: 0.28
FXa assay OD, 20 nM Ab, 10 nM TFPI [9]: 0.325
% of Normalized, TF/FVIIa/FX complex assay, Ab 1.56 nM [10]: 14.7%
% of Normalized, TF/FVIIa/FX complex assay, Ab 3.13 nM [10]: 16.8%
% of Normalized, TF/FVIIa/FX complex assay, Ab 6.25 nM [10]: 19.2%
% of Normalized, TF/FVIIa/FX complex assay, Ab 12.5 nM [10]: 24.2%
% of Normalized, TF/FVIIa/FX complex assay, Ab 25 nM [10]: 72.3%
% of Normalized, TF/FVIIa/FX complex assay, Ab 50 nM [10]: 101%
% of Normalized, TF/FVIIa/FX complex assay, Ab 100 nM [10]: 102%
TFPI inhibitory activity, FXa activity assay, Ab 10 nM [11]: 78%
TFPI inhibitory activity, FXa activity assay, Ab 40 nM [11]: 82%
TFPI inhibitory activity, TF/FVIIa/FXa complex assay, Ab 50 nM [11]: 100%
TFPI inhibitory activity, TF/FVIIa/FXa complex assay, Ab 100 nM [11]: 100%
FXa assay % of FXa alone, 0.625 nM Ab, 10 nM TFPI [12]: 4%
FXa assay % of FXa alone, 2.5 nM Ab, 10 nM TFPI [12]: 8%
FXa assay OD, 0.625 nM Ab, 10 nM TFPI [12]: 0.042 OD
FXa assay OD, 2.5 nM Ab, 10 nM TFPI [12]: 0.083 OD
FXa assay OD, 10 nM Ab, 10 nM TFPI [12]: 0.765 OD
FXa assay OD, 40 nM Ab, 10 nM TFPI [12]: 0.804 OD
FXa assay % of FXa alone, 2.5 nM Ab, 10 nM TFPI [13]: 8.3%
FXa assay % of FXa alone, 5 nM Ab, 10 nM TFPI [13]: 59.8%
FXa assay % of FXa alone, 10 nM Ab, 10 nM TFPI [13]: 73.9%
FXa assay % of FXa alone, 20 nM Ab, 10 nM TFPI [13]: 74.1%
FXa assay OD, 2.5 nM Ab, 10 nM TFPI [13]: 0.06
FXa assay OD, 5 nM Ab, 10 nM TFPI [13]: 0.43
FXa assay OD, 10 nM Ab, 10 nM TFPI [13]: 0.531
B1: clone 308-4 (antibody, V domains shown)
VH: EVQLVESGGGLVKPGGSLRLSCAASGFTFSSYAMNWVRQAPGKGLEWVSTITTGGSYTYYADSVEGRFTISRDNAKNSLYLQMNSLRAEDTAVYYCARQDGNFLMDYWGQGTLVTVSS
VL: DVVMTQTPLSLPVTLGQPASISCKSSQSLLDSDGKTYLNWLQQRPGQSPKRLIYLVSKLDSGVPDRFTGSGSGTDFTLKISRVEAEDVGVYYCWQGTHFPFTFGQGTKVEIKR

TF/FVIIa/FXa assay % of 0 nM TFPI, 12.5 nM Ab, 50 nM TFPI [4]: 18.5%
TF/FVIIa/FXa assay % of 0 nM TFPI, 50 nM Ab, 50 nM TFPI [4]: 102%
TF/FVIIa/FXa assay % of 0 nM TFPI, 100 nM Ab, 50 nM TFPI [4]: 110%
TF/FVIIa/FXa assay OD, 12.5 nM Ab, 50 nM TFPI [4]: 0.148 OD
TF/FVIIa/FXa assay OD, 25 nM Ab, 50 nM TFPI [4]: 0.303 OD
TF/FVIIa/FXa assay OD, 50 nM Ab, 50 nM TFPI [4]: 0.816 OD
TF/FVIIa/FXa assay OD, 100 nM Ab, 50 nM TFPI [4]: 0.88 OD
Kd [8]: 0.033 nM
TFPI inhibitory activity, FXa activity assay, Ab 10 nM [11]: 72%
TFPI inhibitory activity, FXa activity assay, Ab 40 nM [11]: 85%
TFPI inhibitory activity, TF/FVIIa/FXa complex assay, Ab 50 nM [11]: 100%
TFPI inhibitory activity, TF/FVIIa/FXa complex assay, Ab 100 nM [11]: 100%
FXa assay % of FXa alone, 0.625 nM Ab, 10 nM TFPI [12]: 5%
FXa assay % of FXa alone, 2.5 nM Ab, 10 nM TFPI [12]: 8%
FXa assay OD, 0.625 nM Ab, 10 nM TFPI [12]: 0.053 OD
FXa assay OD, 2.5 nM Ab, 10 nM TFPI [12]: 0.078 OD
FXa assay OD, 10 nM Ab, 10 nM TFPI [12]: 0.71 OD
FXa assay OD, 40 nM Ab, 10 nM TFPI [12]: 0.832 OD
B2: clone 308-2 (antibody, V domains shown)
VH: EVQLVESGGGLVKPGGSLRLSCAASGFTFSSYAMNWVRQAPGKGLEWVSTITTGGSYTYYADSVQGRFTISRDNAKNSLYLQMNSLRAEDTAVYYCARQDGNFLMDYWGQGTLVTVSS
VL: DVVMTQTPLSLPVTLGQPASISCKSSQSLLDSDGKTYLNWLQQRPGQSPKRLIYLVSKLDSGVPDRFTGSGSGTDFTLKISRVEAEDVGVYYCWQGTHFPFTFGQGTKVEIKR
